According to article PMC6801465, “Efficient Epidermal Growth Factor Receptor Targeting Oligonucleotide as a Potential Molecule for Targeted Cancer Therapy”:

Tests used:
[1] = target: T1, EGFR recombinant protein (Sino Biological 10001-H08H) (human, UniProt P00533 25-645); assay: ELONA; Binding buffer: serum-free DMEM + 100 ug/mL tRNA; aptamers denatured 95 C 5 min, snap cooled on ice 10 min; ELONA 1 h (temperature not given); flow cytometry Kd; details: protein: commercial, label: 5'-biotin (ELONA)
[2] = target: T1, EGFR recombinant protein (Sino …); assay: ELONA; 100 nM aptamer; Binding buffer: serum-free DMEM + 100 ug/mL tRNA; aptamers denatured 95 C 5 min, snap cooled on ice 10 min; ELONA 1 h (temperature not given); flow cytometry Kd; details: protein: commercial; label: 5'-biotin (ELONA)

Binder	binding result [2]	further results
UGCUUUGAUGUCGAUUCGACAGGAGGC (XNA, 2'-OMe on U, G, C; all A (positions 8, 14, 19, 21, 24) are DNA) [CL-4RNV616]		Kd ([1]; 5'-FAM (cells)): 18.2 nM
GCCUUAGUAACGUGCUUUGAUGUCGAUUCGACAGGAGGC (XNA, 2'-F on all C and U; A and G are RNA) [CL-4]		Kd [1]: 13.3 nM
UGCUUUGAUGUCGAUUCGACAGGAGGC (structured_RNA, none (all RNA)) [CL-4RNV617]	no binding	
TGCTTTGATGTCGATTCGACAGGAGGC (structured_DNA, none (all DNA)) [CL-4RNV618]	no binding	
